Data published in US20120316071A1 (published 2012).

Key:
Recombinant Human DLL4 [1] = target: T1, Recombinant Human DLL4 (human, UniProt Q9NR61 27-524); experiment: ECL 96-well plate binding assay, DLL4 immobilised, 10 nM Fab
T1 construct: Bought recombinant protein (R&D Systems Cat#1506-D4/CF), coated on the plate; also called delta-like protein 4; Delta-like 4
Experimental: (§1) A similar ECL assay was performed as above, except only one antigen was immobilized to a single-spot per well plate for testing. […] One well was left blank as a control. The protein was removed and an 150 μl aliquot of 1% BSA in TBST was added to each well and allowed to incubate for 1 hour at 20° C. followed by washing 2 times with 150 μl TBST and tap drying to completely remove any residual solution. Subsequently, 25 μl aliquot of each Fab (with 1% BSA with TBST) was added to each well. The plate was sealed and incubated for 1 hour at 20° C. with shaking. […] In one experiment, 5 μL of 30 μg/mL antigen was used to coat the plate and each Fab was tested at a concentration of 0.02 μM. In the other experiment, 5 μL of 15 μg/mL antigen was used to coat the plate and each Fab was tested at a concentration of 0.004 μM.
(§2) The Fab was subsequently removed and 25 μl anti-human Kappa Ruthenium antibody or anti-human Lambda Ruthenium antibody (1 μg/ml in 1% BSA with TBST) was added to each well and allowed to incubate for 1 hour at 20° C. with shaking Finally, 15 μl of Read Buffer P with Surfactant (Cat # R92PC-1, Meso Scale Discovery) was added to each well. The electrochemiluminescence was measured using a Sector Imager 2400 (Meso Scale Discovery). Data was analyzed by comparing the ECL signals for an antigen to the blank of each well. A signal to blank ratio of 4 or more was considered a “Hit” Fab.

Recombinant Human DLL4 [2] = target: T1, Recombinant Human DLL4; experiment: ELISA, DLL4 coated, 100 nM Fab
Recombinant Human DLL4 [3] = target: T2, Recombinant Human DLL4 (human, UniProt Q9NR61 27-524); experiment: ECL (MSD) 96-well plate assay; plate coated with 15 ug/mL DLL4; 0.004 uM Fab
T2 construct: Bought recombinant protein (R&D Systems Cat#1506-D4/CF); also called delta-like protein 4; Delta-like 4
Experimental: as §1, §2
(§3) The ECL binding experiments above were repeated, except with varying concentrations of mutant Fab and DLL4 protein.

Recombinant Human DLL4 [4] = target: T2, Recombinant Human DLL4; experiment: ECL (MSD) 96-well plate assay; plate coated with 30 ug/mL DLL4; 0.02 uM Fab
Experimental: as §1, §2, §3

ECL signal (Recombinant Human DLL4 [1]) | ELISA signal (Recombinant Human DLL4 [2]) | ECL signal (Recombinant Human DLL4 [3]) | Signal/Noise (Recombinant Human DLL4 [3]) | ECL signal (Recombinant Human DLL4 [4]) | Signal/Noise (Recombinant Human DLL4 [4]) | Binder
91500 | 0.017 | – | – | – | – | Fab VH1-46_IGHD6-6*01_IGHJ1*01 S102A/S103P/S104F/H111F/I51T/N52L/P53E/S54T/G56H & L6_IGKJ1*01 (Fab, V domains shown, Tested as Fab expressed in E. coli (CH1 with His6/Flag tags from plasmid A; kappa CL from plasmid C); also called APFF TLETH) VH: QVQLVQSGAEVKKPGASVKVSCKASGYTFTSYYMHWVRQAPGQGLEWMGITLETGHSTSYAQKFQGRVTMTRDTSTSTVYMELSSLRSEDTAVYYCAREEYAPFSAEYFQFWGQGTLVTVSS VL: not shown
135000 | 0.076 | – | – | – | – | Fab VH1-46_IGHD6-6*01_IGHJ1*01 S102A/S103P/S104F/H111F/I51T/N52L/P53S/S54T/G56H & L6_IGKJ1*01 (Fab, V domains shown, Tested as Fab expressed in E. coli (CH1 with His6/Flag tags from plasmid A; kappa CL from plasmid C); also called APFF TLSTH) VH: QVQLVQSGAEVKKPGASVKVSCKASGYTFTSYYMHWVRQAPGQGLEWMGITLSTGHSTSYAQKFQGRVTMTRDTSTSTVYMELSSLRSEDTAVYYCAREEYAPFSAEYFQFWGQGTLVTVSS VL: not shown
– | – | 10300 | 70.8 | 19100 | 50.3 | Fab VH1-46_IGHD6-6*01_IGHJ1*01 S102A & L6_IGKJ1*01 (Fab, V domains shown, Heavy chain CDR3 alanine mutant of the parent Fab; Fab format with CH1, kappa CL, His6 and Flag tags from the expression plasmids) VH: QVQLVQSGAEVKKPGASVKVSCKASGYTFTSYYMHWVRQAPGQGLEWMGIINPSGGSTSYAQKFQGRVTMTRDTSTSTVYMELSSLRSEDTAVYYCAREEYASSSAEYFQHWGQGTLVTVSS VL: not shown
125000 | 0.219 | – | – | – | – | Fab VH1-46_IGHD6-6*01_IGHJ1*01 S102A/S103P/S104F/H111F/I51T/N52L/P53T/S54T/G56H & L6_IGKJ1*01 (Fab, V domains shown, Tested as Fab expressed in E. coli (CH1 with His6/Flag tags from plasmid A; kappa CL from plasmid C); also called APFF TLTTH) VH: QVQLVQSGAEVKKPGASVKVSCKASGYTFTSYYMHWVRQAPGQGLEWMGITLTTGHSTSYAQKFQGRVTMTRDTSTSTVYMELSSLRSEDTAVYYCAREEYAPFSAEYFQFWGQGTLVTVSS VL: not shown
114000 | 0.021 | – | – | – | – | Fab VH1-46_IGHD6-6*01_IGHJ1*01 S102A/S103P/S104F/H111F/I51T/N52L/P53N/S54T/G56H & L6_IGKJ1*01 (Fab, V domains shown, Tested as Fab expressed in E. coli (CH1 with His6/Flag tags from plasmid A; kappa CL from plasmid C); also called APFF TLNTH) VH: QVQLVQSGAEVKKPGASVKVSCKASGYTFTSYYMHWVRQAPGQGLEWMGITLNTGHSTSYAQKFQGRVTMTRDTSTSTVYMELSSLRSEDTAVYYCAREEYAPFSAEYFQFWGQGTLVTVSS VL: not shown
– | – | 536 | 3.7 | 1300 | 3.4 | Fab VH1-46_IGHD6-6*01_IGHJ1*01 E100A & L6_IGKJ1*01 (Fab, V domains shown, Heavy chain CDR3 alanine mutant of the parent Fab; Fab format with CH1, kappa CL, His6 and Flag tags from the expression plasmids) VH: QVQLVQSGAEVKKPGASVKVSCKASGYTFTSYYMHWVRQAPGQGLEWMGIINPSGGSTSYAQKFQGRVTMTRDTSTSTVYMELSSLRSEDTAVYYCAREAYSSSSAEYFQHWGQGTLVTVSS VL: not shown
– | – | 5020 | 34.4 | 11600 | 30.6 | Fab VH1-46_IGHD6-6*01_IGHJ1*01 H111A & L6_IGKJ1*01 (Fab, V domains shown, Heavy chain CDR3 alanine mutant of the parent Fab; Fab format with CH1, kappa CL, His6 and Flag tags from the expression plasmids) VH: QVQLVQSGAEVKKPGASVKVSCKASGYTFTSYYMHWVRQAPGQGLEWMGIINPSGGSTSYAQKFQGRVTMTRDTSTSTVYMELSSLRSEDTAVYYCAREEYSSSSAEYFQAWGQGTLVTVSS VL: not shown
105000 | 0.341 | – | – | – | – | Fab VH1-46_IGHD6-6*01_IGHJ1*01 S102A/S103P/S104F/H111F/I51T/N52L/P53M/S54T/G56H & L6_IGKJ1*01 (Fab, V domains shown, Tested as Fab expressed in E. coli (CH1 with His6/Flag tags from plasmid A; kappa CL from plasmid C); also called APFF TLMTH) VH: QVQLVQSGAEVKKPGASVKVSCKASGYTFTSYYMHWVRQAPGQGLEWMGITLMTGHSTSYAQKFQGRVTMTRDTSTSTVYMELSSLRSEDTAVYYCAREEYAPFSAEYFQFWGQGTLVTVSS VL: not shown
103000 | 0.018 | – | – | – | – | Fab VH1-46_IGHD6-6*01_IGHJ1*01 S102A/S103P/S104F/H111F/I51T/N52L/P53G/S54T/G56H & L6_IGKJ1*01 (Fab, V domains shown, Tested as Fab expressed in E. coli (CH1 with His6/Flag tags from plasmid A; kappa CL from plasmid C); also called APFF TLGTH) VH: QVQLVQSGAEVKKPGASVKVSCKASGYTFTSYYMHWVRQAPGQGLEWMGITLGTGHSTSYAQKFQGRVTMTRDTSTSTVYMELSSLRSEDTAVYYCAREEYAPFSAEYFQFWGQGTLVTVSS VL: not shown
163000 | 0.33 | – | – | – | – | Fab VH1-46_IGHD6-6*01_IGHJ1*01 S102A/S103P/S104F/H111F/I51T/N52L/P53A/S54T/G56H & L6_IGKJ1*01 (Fab, V domains shown, Tested as Fab expressed in E. coli (CH1 with His6/Flag tags from plasmid A; kappa CL from plasmid C); also called APFF TLATH) VH: QVQLVQSGAEVKKPGASVKVSCKASGYTFTSYYMHWVRQAPGQGLEWMGITLATGHSTSYAQKFQGRVTMTRDTSTSTVYMELSSLRSEDTAVYYCAREEYAPFSAEYFQFWGQGTLVTVSS VL: not shown
– | – | 3610 | 24.8 | 163000 | 431 | Fab VH1-46_IGHD6-6*01_IGHJ1*01 S104A & L6_IGKJ1*01 (Fab, V domains shown, Heavy chain CDR3 alanine mutant of the parent Fab; Fab format with CH1, kappa CL, His6 and Flag tags from the expression plasmids) VH: QVQLVQSGAEVKKPGASVKVSCKASGYTFTSYYMHWVRQAPGQGLEWMGIINPSGGSTSYAQKFQGRVTMTRDTSTSTVYMELSSLRSEDTAVYYCAREEYSSASAEYFQHWGQGTLVTVSS VL: not shown
– | – | 181 | 1.2 | 1100 | 2.9 | Fab VH1-46_IGHD6-6*01_IGHJ1*01 S105A & L6_IGKJ1*01 (Fab, V domains shown, Heavy chain CDR3 alanine mutant of the parent Fab; Fab format with CH1, kappa CL, His6 and Flag tags from the expression plasmids) VH: QVQLVQSGAEVKKPGASVKVSCKASGYTFTSYYMHWVRQAPGQGLEWMGIINPSGGSTSYAQKFQGRVTMTRDTSTSTVYMELSSLRSEDTAVYYCAREEYSSSAAEYFQHWGQGTLVTVSS VL: not shown
